In patent publication US8466258B2, “Polypeptides, cyclic polypeptides and pharmaceutical comprising thereof for non invasive specific imaging of fibrosis” (INSERM (Institut National de la Santé et de la Recherche …, priority 2008, dated 2013):
Values belong to the molecule of their own block, whether it stands above or below them. Bridge positions count the residues as written; N and C are the ends. Peptide text beside a SMILES is read from it. * marks the point of attachment. Biotin = O=C1N[C@H]2[C@H](CS[C@H]2CCCCC(=O)*)N1

Key:
laminin = laminin (Mus musculus, UniProt P02468+P02469+P19137); assay: SPR: laminin binding to collagelin
9O12.2 IgG = assay: SPR: 9O12.2 IgG injected over immobilized biotin-collagelin; assay type: binding; settings: 9O12.2 IgG 5 μg/ml, competitor 25 μg/ml
Experimental: A Biacore 2000 instrument (GE Healthcare Europe GmbH, Orsay, France) (Université Paris 7, Institut Jacques Monod, Paris, France) was used to characterize the binding properties of the synthesized peptides. Biotinylated peptides (˜20 RU) were covalently coupled to the surface of a SA-sensorchip.
Glycine-HCl (10 mM pH 2.5) was injected for 30 s at 20 μL·min-1 to regenerate the sensorchip between each sample. Sensorgrams were analyzed with the BIA evaluation version 3.1 software. Kinetic constants (kon, koff) were deduced from the analysis of association and dissociation rates at four different IgG concentrations ranging from 1.25 to 10 μg·mL^−1. The dissociation constant KD was calculated from KD=koff/kon. […] In some experiments, the peptide was reduced by DTT on the sensor chip before injection of the IgG. Competition experiments were performed by mixing the IgG with recombinant soluble GPVI (25 μg·mL^−1). Collagen binding to the peptide was analysed by injecting type I equine collagen (Collagen Horm, Nycomed. Germany) (200 μg·mL^−1 in EBS-EP buffer) onto the peptide-coated sensorchip.

[1] = tested on: type I equine fibrillar collagen (Horm); assay: Solid phase assay on collagen-coated microtitration plates; assay type: binding; settings: competitor mixed with collagelin, 50 and 20 μg/mL (3J24.2: 50 μg/mL)

Kd (laminin): 18.3 µM
Molecule: CSCC[C@@H]1NC(=O)[C@H](C(C)C)NC(=O)[C@H](CCCNC(=N)N)NC(=O)[C@@H]2CCCN2C(=O)CNC(=O)[C@@H](NC(=O)CNC(=O)[C@H](CO)NC(=O)CNC(=O)[C@H](CO)NC(=O)CCCC[C@@H]2SC[C@@H]3NC(=O)N[C@@H]32)CSSC[C@@H](C(N)=O)NC(=O)[C@@H]2CCCN2C(=O)CNC(=O)[C@H](CCC(=O)O)NC(=O)[C@H](CC(=O)O)NC(=O)[C@H](CC(=O)O)NC(=O)CNC(=O)[C@H](CC(C)C)NC(=O)[C@H](Cc2c[nH]cn2)NC(=O)[C@H](CC(C)C)NC(=O)CNC(=O)[C@H](Cc2c[nH]cn2)NC1=O [collagelin] (Biotin-SGSGCGPRVMHGLHLGDDEGPC-NH2; disulfide 5-22)

inhibition of 9O12.2 IgG binding to immobilized biotin-collagelin by competitor (9O12.2 IgG): completely inhibited
inhibition of biotin-collagelin binding to collagen by competitor [1]: completely inhibited
B1: recombinant soluble GPVI: soluble recombinant GPVI-Fc fusion protein (protein)
chain: QSGPLPKPSLQALPSSLVPLEKPVTLRCQGPPGVDLYRLEKLSSSRYQDQAVLFIPAMKRSLAGRYRCSYQNGSLWSLPSDQLELVATGVFAKPSLSAQPGPAVSSGGDVTLQCQTRYGFDQFALYKEGDPAPYKNPERWYRASFPIITVTAAHSGTYRCYSFSSRDPYLWSAPSDPLELVVTGTSVTPSRLPTEPPSPVAEFSEATAELTVSFTNEVFTTETSRSITASPKESDSPAGPARQYYTKGN
modifications: left off: a dimerising Fc or GST
notes: soluble recombinant GPVI-Fc fusion protein
